Results taken from publication PMC10855774, “Role of Spexin in White Adipose Tissue Thermogenesis under Basal and Cold-Stimulated Conditions” (International Journal of Molecular Sciences, 2024).

What was measured:
ucp1 = assay: UCP1 protein expression in EAT and IAT (Western blot); format: in vivo, mice
Protocol: Normal adult male C57BL/6 mice (four months of age) were kept in a temperature-controlled environment (20–22 °C and a fixed 12 h light/12 h dark cycle; lights on at 07:00 h) and fed ad libitum with Purina commercial rat/mouse chow (Ganave, Buenos Aires, Argentina, L0723/1). Mice were injected with SPX or PBS (29 µg/kg/day, Tocris, Bristol, UK) for ten days (the SPX and CTR groups, respectively). On the third day of the protocol, each group was subdivided into two other groups: one exposed to cold (4 °C, CTR-C and SPX-C, n = 12 mice for each group) and another one housed at RT (CTR and SPX, n = 15 mice for each group) (Figure 1). Food intake and body weight were measured every day. On the experimental day (day 10), the mice were euthanized under non-fasting conditions (08:00 to 09:00 h), and their trunk blood was collected; plasma samples were then frozen (–80 °C) until the metabolite measurement. […]
For protein analysis by Western blot, IAT and EAT were lysed in a RIPA buffer supplemented with a protease and phosphatase inhibitor cocktail. Protein contents were quantified with the bicinchoninic acid method (Thermo Scientific, Pierce™ BCA Protein Assay Kit). […] Finally, relative protein levels were calculated using Image J Fiji software 1.54f.

cox8b = cox8b mRNA expression in AT depots (qRT-PCR); format: in vivo, mice; conditions: cold, SPX-C vs. CTR-C, C × S p < 0.001
Protocol: Normal adult male C57BL/6 mice (four months of age) were kept in a temperature-controlled environment (20–22 °C and a fixed 12 h light/12 h dark cycle; lights on at 07:00 h) and fed ad libitum with Purina commercial rat/mouse chow (Ganave, Buenos Aires, Argentina, L0723/1). Mice were injected with SPX or PBS (29 µg/kg/day, Tocris, Bristol, UK) for ten days (the SPX and CTR groups, respectively). On the third day of the protocol, each group was subdivided into two other groups: one exposed to cold (4 °C, CTR-C and SPX-C, n = 12 mice for each group) and another one housed at RT (CTR and SPX, n = 15 mice for each group) (Figure 1). Food intake and body weight were measured every day. On the experimental day (day 10), the mice were euthanized under non-fasting conditions (08:00 to 09:00 h), and their trunk blood was collected; plasma samples were then frozen (–80 °C) until the metabolite measurement. Inguinal AT (IAT, subcutaneous depot), epididymal AT (EAT, visceral depot), and brown AT (BAT, subcutaneous depot) were aseptically dissected and weighed. These depots were kept at –80 °C for further procedures. Animals were euthanized according to protocols for animal use, in agreement with the NIH guidelines for the care and use of experimental animals. All experiments were approved by our Institutional Animal Care Committee (Approval code: 6NE-2023).
Total RNA was isolated from cells by the Trizol extraction method (Invitrogen, Life Technology, Waltham, MA, USA) and reverse-transcribed using random primers (250 ng) and RevertAid Reverse Transcriptase (200 U/µL, Thermo Scientific, Waltham, MA, USA). […] The expression levels were analyzed for β-actin (βactin, […] gene), Uncoupling Protein 1 (ucp1), proliferator-activated receptor gamma coactivator-1 alpha (pgc1α), cytochrome-c oxidase subunit 8b (cox8b), galanin receptors 2 and 3 (galr2 and galr3, respectively), and Spexin (spx). […] The relative changes in the expression level of each gene (ΔΔCt) were calculated by the ΔCt method.

[1] = tested on: beige precursors (PDGFRα+; EBF2+); assay: Beige precursors (PDGFRα+; EBF2+) in the SVF by flow cytometry; format: in vivo, mice; conditions: SPX for 3 days prior to cold exposure; n = 4, t-test
Protocol: Fresh EAT pads were dissected, weighed, and digested with collagenase, as previously reported. Briefly, fat tissue was minced and digested using 1 mg/mL of the collagenase solution in DMEM (at 37 °C for 40–60 min). After centrifugation (1000 rpm for 15 min), the SVF pellets were filtered (in a 50-µm-mesh nylon cloth) and washed with DMEM (x3). SVF cells were then resuspended in DMEM supplemented with 10% (v/v) FBS, HEPES ([…]), 100 IU/mL of penicillin, and 100 µg/mL of streptomycin (basal medium) and reserved for the flow cytometry protocol.
The SVF was prepared as reported above and counted and filtered through a 70-μM cell strainer. To block unspecific binding, the cells were resuspended in 10% inactivated FBS in FACS buffer (1% BSA in PBS) for 10 min. Then, the cells were incubated with the surface antibody anti-Pdgfrα (CD140a)-PE/Cy7 (1:200, BioLegend, San Diego, CA, USA) and washed twice with FACS buffer, followed by centrifugation (300× g, 5 min). Fixation was performed with 2% paraformaldehyde in PBS for 20 min at room temperature. After washing, the cells were subjected to permeabilization with 0.1 % Triton X100 in PBS for 15 min at room temperature. […] The samples were analyzed on a FACS Calibur flow cytometer (BD bioscience, Franklin Lakes, NJ, USA). […]

ucp1, pgc1α, and prdm16 = conditions: obese female mice treated with SPX for 50 days; cited from earlier work
Excerpt: (§1) Little is known about the role of SPX in thermogenesis. […] In the liver, results are contradictory. While one study has shown that SPX decreases pgc1α expression both in vivo and in vitro [26], another study has shown the opposite effect. Thus, the aim of this study was to evaluate the role of SPX during WAT thermogenesis under both room temperature (RT) and cold-stimul ...

β3-adrenergic receptors = conditions: obese female mice treated with SPX for 50 days; cited from earlier work
Excerpt: as §1

3T3-L1 adipocytes = conditions: in vitro; cited from earlier work
Excerpt: (§2) Beige adipocytes may be generated through two different mechanisms: adipogenesis, de novo, from precursor stem cells, and the transdifferentiation process, which involves the conversion/reprogramming of white adipocytes. Regarding the former, different studies have shown the presence of different adipocyte precursors that have different thermogenic capacities when differentiated in vitro [22]. Other studies have observed that PDGFRα+ cells are bipotential precursors, being able to differentiate into either white or beige adipocytes depending on the stimulus. Then, only PDGFRα+ and EBF2+ cell ...

preadipocytes = conditions: cited from earlier work
Excerpt: as §2

B1: Spexin (peptide, UniProt Q9BT56 27-116, looked up)
Spexin: APQRLLERRNWTPQAMLYLKGAQGRRFISDQSRRKDLSDRPLPERRSPNPQLLTIPEAATILLASLQKSPEDEEKNFDQTRFLEDSLLNW
modifications: Spexin
notes: novel adipokine, a peptide of 14 amino acids of the galanin family; purchased from Tocris
- UCP1 protein levels in EAT (Western blot) (ucp1; basal and cold conditions, p < 0.05, n = 4–6): reduced the UCP1 protein levels at both basal and cold conditions
- UCP1 protein levels in IAT (Western blot) (ucp1; cold, SPX-C intermediate between CTR and CTR-C, C × S p < 0.05): partial decrease in UCP1 levels
- cox8b mRNA expression in EAT (cox8b): inhibitory effect of SPX under cold conditions
- cox8b mRNA expression in IAT (cox8b): inhibitory effect of SPX under cold conditions
- cox8b mRNA expression in BAT (cox8b; Supplementary Figure S2c): inhibitory effect of SPX under cold conditions
- abundance (%) of beige precursors in the SVF of EAT [1]: no changes were observed in either of the two AT depots studied
- abundance (%) of beige precursors in the SVF of IAT [1]: no changes were observed in either of the two AT depots studied
- ucp1, pgc1α, and prdm16 expressions in BAT (ucp1, pgc1α, and prdm16): decreased
- immunodetection of β3-adrenergic receptors in gonadal WAT (β3-adrenergic receptors): lower immunodetection
- terminal differentiation of white 3T3-L1 adipocytes (3T3-L1 adipocytes): inhibits
- viability or proliferation of preadipocytes (preadipocytes): does not affect
